Source: patent US20180140739A1, “HAEMOSTATIC DEVICE” (HAEMOSTATIX LIMITED, priority 2015, published 2018)
Ends that are not written are not given here.

T1: purified human fibrinogen (Homo sapiens, UniProt P02675+P02679)
T1 sequence (P02679 27-433 limits assumed): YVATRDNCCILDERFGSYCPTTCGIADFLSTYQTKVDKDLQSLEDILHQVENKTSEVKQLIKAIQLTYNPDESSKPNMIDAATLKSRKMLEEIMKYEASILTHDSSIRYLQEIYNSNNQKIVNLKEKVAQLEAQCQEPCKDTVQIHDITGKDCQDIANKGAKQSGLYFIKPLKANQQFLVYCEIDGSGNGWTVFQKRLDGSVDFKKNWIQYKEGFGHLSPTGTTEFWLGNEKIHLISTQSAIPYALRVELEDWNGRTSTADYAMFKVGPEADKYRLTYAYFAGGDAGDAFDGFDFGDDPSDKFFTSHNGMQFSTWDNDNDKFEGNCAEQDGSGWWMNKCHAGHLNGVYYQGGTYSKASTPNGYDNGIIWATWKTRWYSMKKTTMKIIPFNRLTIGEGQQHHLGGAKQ
T1 sequence (P02675 31-491): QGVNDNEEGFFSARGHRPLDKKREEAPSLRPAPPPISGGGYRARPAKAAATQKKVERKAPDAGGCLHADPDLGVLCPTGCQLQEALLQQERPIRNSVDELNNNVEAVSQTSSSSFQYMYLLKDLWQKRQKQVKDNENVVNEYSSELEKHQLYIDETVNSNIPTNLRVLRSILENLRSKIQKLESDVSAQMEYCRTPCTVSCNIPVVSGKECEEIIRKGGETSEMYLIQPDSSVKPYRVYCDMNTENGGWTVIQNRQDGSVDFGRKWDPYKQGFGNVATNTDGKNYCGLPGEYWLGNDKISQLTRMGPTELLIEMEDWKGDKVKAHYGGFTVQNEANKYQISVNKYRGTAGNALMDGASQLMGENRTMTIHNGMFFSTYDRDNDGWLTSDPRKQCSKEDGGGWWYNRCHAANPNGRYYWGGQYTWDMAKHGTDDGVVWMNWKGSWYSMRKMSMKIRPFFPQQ
T1 sequence (P02671 20-629 partner limits assumed): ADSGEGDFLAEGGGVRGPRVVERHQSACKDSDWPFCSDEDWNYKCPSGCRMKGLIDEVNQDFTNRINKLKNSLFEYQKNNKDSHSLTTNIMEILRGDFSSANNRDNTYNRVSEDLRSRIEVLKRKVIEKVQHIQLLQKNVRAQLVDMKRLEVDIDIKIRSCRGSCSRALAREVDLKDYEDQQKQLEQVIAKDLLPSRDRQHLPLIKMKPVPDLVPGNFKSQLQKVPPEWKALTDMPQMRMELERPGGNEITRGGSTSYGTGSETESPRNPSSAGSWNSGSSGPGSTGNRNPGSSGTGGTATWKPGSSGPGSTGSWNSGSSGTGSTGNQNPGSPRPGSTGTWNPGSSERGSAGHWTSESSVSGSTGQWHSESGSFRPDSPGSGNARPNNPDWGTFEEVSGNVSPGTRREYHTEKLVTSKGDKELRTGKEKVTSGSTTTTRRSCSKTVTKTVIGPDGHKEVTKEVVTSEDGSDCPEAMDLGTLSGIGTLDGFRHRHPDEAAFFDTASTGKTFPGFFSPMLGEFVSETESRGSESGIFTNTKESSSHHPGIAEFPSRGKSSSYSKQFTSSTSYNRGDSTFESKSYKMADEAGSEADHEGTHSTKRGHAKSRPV

B1: Peptide Dendrimer No. 12 (peptide, from a related filing, part only)
peptide: GPRPG
chain: KKKKK
modifications: also: five-arm dendrimer, all arms GPRPG, C-termini attached to branched core

Tests used:
[1] = biological target: T1, purified human fibrinogen; assay: Polymerisation (clotting) of purified fibrinogen, Sigma Amelung KC4 Delta coagulation analyser; assay type: biochemical; conditions: conjugate 2 mg/ml, dendrimer 0.025-0.5 mg/ml
Protocol: The ability of Peptide Dendrimer No. 12 to polymerise fibrinogen was assessed. 30 μl of dendrimer in solution, at concentration ranging from 0.005-2 mg/ml, was added to 100 μl purified human fibrinogen at 3 mg/ml (the level of fibrinogen found in the blood). Polymerisation of fibrinogen was analysed using a Sigma Amelung KC4 Delta coagulation analyser.
The concentration of each dendrimer was varied from 0.005-0.5 mg/ml.

human fibrinogen (human) = human fibrinogen (human) (UniProt P02671); assay: cell-based or functional assay

Row | Molecule | activity of mixtures of peptide conjugate (2 mg/ml) with Peptide Dendrimer No. 3 or 4 in copolymerising with fibrinogen [1] | Clotting activity (seconds), non-irradiated control; extract about 0.25 mg/ml with human fibrinogen 3 mg/ml, 37° C. (human fibrinogen (human)) [s] | Clotting activity (seconds), storage for 2 weeks post irradiation (30 kGy); extract about 0.25 mg/ml with human fibrinogen 3 mg/ml, 37° C. (human fibrinogen (human)) [s] | Clotting activity (seconds), storage for 4 weeks post irradiation (30 kGy); extract about 0.25 mg/ml with human fibrinogen 3 mg/ml, 37° C. (human fibrinogen (human)) [s] | clotting time in human plasma, dendrimer 0.25 mg/ml, 37° C., coagulation analyser (human fibrinogen (human)) [s]
1 | Peptide Conjugate No. 1 (peptide 1 GPRP; peptide 2 GPRP; also: peptide conjugate of two chains, linkage not given here) | not active |  |  |  | 
2 | B1 |  | 1 | 1 | 1 | < 1
